Here are results for 2 molecules from US20180296639A1 (Hoffmann-La Roche, published 2018).

B1: E3 ubiquitin ligase seven in absentia homolog 1 (Siah1), human, endogenous in human retinal pericytes (hRP) (enzyme)
chain: MSRQTATALPTGTSKCPPSQRVPALTGTTASNNDLASLFECPVCFDYVLPPILQCQSGHLVCSNCRPKLTCCPTCRGPLGSIRNLAMEKVANSVLFPCKYASSGCEITLPHTEKADHEELCEFRPYSCPCPGASCKWQGSLDAVMPHLMHQHKSITTLQGEDIVFLATDINLPGAVDWVMMQSCFGFHFMLVLEKQEKYDGHQQFFAIVQLIGTRKQAENFAYRLELNGHRRRLTWEATPRSIHEGIATAIMNSDCLVFDTSIAQLFAENGNLGINVTISMC
notes: Endogenous protein in lysates of human retinal pericytes, immunoprecipitated with an anti-Siah1 antibody
B2: glyceraldehyde-3-phosphate dehydrogenase (GAPDH), human, endogenous in human retinal pericytes (hRP) (enzyme)
chain: not shown
notes: Endogenous protein in lysates of human retinal pericytes; The proposed model says GAPDH is S-nitrosylated when it associates with Siah1

Experiment [1] addresses B2. In words: co-immunoprecipitation from hRP lysates: IP anti-Siah1, western blot anti-GAPDH. A general note: A western blot detects proteins with antibodies after separation by electrophoresis.
Method: (§1) Equal amounts of protein (1000 μg) from each sample were mixed with 10 μg of anti-Siah1 antibody overnight at 4° C. Pierce Protein A/G Magnetic Beads were pre-cleared and added to the antigen sample/antibody mixture at room temperature for 1 hr. Beads were collected with a magnetic stand and eluted using 50 μl 4× SDS-PAGE reducing sample buffer at 100° C. for 10 mins. The immuno-complexes were then subjected to Western blot analysis. Siah1-depleted samples served as controls for total pull down of Siah1 from each lysate.
Experiment [2] deals with B1. Described as above.
Method: as §1

In the case of B1, in experiment [1], the binding result is recorded as “binds”.

Turning to B2, the “fold increase in GAPDH/Siah1 association (high glucose against osmotic control)” value in experiment [2] worked out at 1.5 fold.
